Reference: article PMC4267654
Where two headings read alike, the source gives them in different places.

T1: R.NgoAVII-B3 (C-terminal B3-like DNA-binding domain) (UniProt Q5F9M9 179-345)
T1 sequence: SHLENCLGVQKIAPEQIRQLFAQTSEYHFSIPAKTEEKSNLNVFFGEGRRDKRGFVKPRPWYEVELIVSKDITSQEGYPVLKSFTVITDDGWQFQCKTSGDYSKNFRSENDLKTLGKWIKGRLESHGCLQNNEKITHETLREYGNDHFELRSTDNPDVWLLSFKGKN

B1: DNA-1 cognate oligoduplex (dsDNA)
DNA 1: GGGATTGCCGCTTAGG
DNA 2: CCCTAAGCGGCAATCC
B2: DNA-2 oligoduplex (DNA-1 without terminal C1 and G32) (dsDNA)
DNA 1: GGGATTGCCGCTTAG
DNA 2: CCTAAGCGGCAATCC

Legend:
[1] = target: T1, R.NgoAVII-B3 (C-terminal B3-like …); experiment: X-ray crystallography
[2] = target: T1, R.NgoAVII-B3 (C-terminal B3-like …); experiment: X-ray crystallography; remark: listed apart in the source

Row | Binder | binding result [1] | binding result [2]
1 | B1 | binds | 
2 | B2 |  | binds
